# Results: publication PMC11696373 (Nature Communications, 2025)
# B1: human XPR1 (natural protein)
# chain: MKFAEHLSAHITPEWRKQYIQYEAFKDMLYSAQDQAPSVEVTDEDTVKRYFAKFEEKFFQTCEKELAKINTFYSEKLAEAQRRFATLQNELQSSLDAQKESTGVTTLRQRRKPVFHLSHEERVQHRNIKDLKLAFSEFYLSLILLQNYQNLNFTGFRKILKKHDKILETSRGADWRVAHVEVAPFYTCKKINQLISETEAVVTNELEDGDRQKAMKRLRVPPLGAAQPAPAWTTFRVGLFCGIFIVLNITLVLAAVFKLETDRSIWPLIRIYRGGFLLIEFLFLLGINTYGWRQAGVNHVLIFELNPRSNLSHQHLFEIAGFLGILWCLSLLACFFAPISVIPTYVYPLALYGFMVFFLINPTKTFYYKSRFWLLKLLFRVFTAPFHKVGFADFWLADQLNSLSVILMDLEYMICFYSLELKWDESKGLLPNNSEESGICHKYTYGVRAIVQCIPAWLRFIQCLRRYRDTKRAFPHLVNAGKYSTTFFMVTFAALYSTHKERGHSDTMVFFYLWIVFYIISSCYTLIWDLKMDWGLFDKNAGENTFLREEIVYPQKAYYYCAIIEDVILRFAWTIQISITSTTLLPHSGDIIATVFAPLEVFRRFVWNFFRLENEHLNNCGEFRAVRDISVAPLNADDQTLLEQMMDQDDGVRNRQKNRSWKYNQSISLRRPRLASQSKARDTKVLIEDTDDEANT
# Biological target: the molecule itself
# Assay: cryo-EM structure
protein,measurement,value
B1,stoichiometry N,2
